B1: C1orf137 (parent)
chain: RQHHHQSSFPGSLPQETNLTLKVC

Variants of: B1
Test: protein stability index of a GFP-peptide fusion (GPS, HEK-293T) (PSI 1-6); higher = more stable
Conditions: c terminus: a fixed tail appended
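Also: lentivirally expressed fusions sorted by FACS into six bins by GFP to DsRed ratio, PSI derived from sequencing read proportions per bin multiplied by bin number.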

Protein stability index, by site and new letter:
G11: V 2.98, Q 3.07, A 2.21, M 3.24, R 2.44, T 2.66, D 2.25, W 2.24, H 2.98, K 3.79, I 2.85, F 2.28, L 2.72, Y 1.95, C 2.61, S 2.9, N 3.01, P 2.53, E 4.03
E16: I 1.75, L 1.7, M 2.48, F 2.28, S 2.63, P 2.99, G 2.39, W 1.55, K 2.57, C 1.47, T 2.69, D 3.63, A 2.33, V 1.57, H 2.87, R 2.34, Q 2.57, Y 1.72, N 2.8
H3: Y 2.57, T 3.13, V 3.09, S 3.36, Q 3.06, N 2.75, R 2.88, P 2.77
S12: H 2.38, Y 2.27, W 2.44, K 2.98, T 2.99, C 2.37, P 2.82, E 3.46, A 3.19, D 3.19, R 3.17, N 2.99, I 2.41, V 3.38, G 2.96, Q 2.55, F 2.41, L 2.66, M 2.73
S8: T 2.71, E 3.85, F 1.84, G 2.47, A 2.81, N 3.08, V 2.78, Y 2.02, L 2.45, W 2, R 2.57, Q 2.9, D 2.89, I 3.03, P 2.71, M 2.68, C 2.67, H 2.45, K 3.07
T17: K 3.54, Y 2.09, C 2.46, W 1.41, I 1.17, V 2.17, E 3.95, Q 3.24, N 3.15, G 3.28, F 2.49, A 2.87, H 2.39, D 3.89, R 3.28, L 1.57, P 2.98, M 2.44, S 3.02
Q15: N 2.47, I 2.53, H 2.51, W 2.29, K 2.46, M 2.29, L 2.19, F 1.71, E 3.65, Y 2.28, R 2.54, C 2.56, S 3.36, T 3.34, V 2.6, A 2.03, D 3.26, P 3.05, G 2.19
N18: A 2.76, T 2, I 2, K 2.89, H 1.84, V 2.46, D 3.83, L 2.2, E 2.77, M 2.51, R 2.29, G 3.65, P 3.17, F 2.55, Y 2.08, W 1.06, C 1.96, S 2.65, Q 3.66
L19: Q 3.52, G 3.98, P 3.31, D 4.63, N 3.49, H 4.14, M 3.16, W 4.19, Y 2.95, S 3.55, A 4.07, T 3.96, K 3.99, E 4.34, F 2.47, C 3.32, I 3.39
T20: R 3.36, P 3.62, N 3.16, D 4.1, E 3.61, G 3.23, K 2.64, Y 1.75, I 2.13, S 3.29, M 2.63, V 2.42, A 3, Q 3.83, W 2.18, C 2.8, F 2.09, L 2.32, H 2.48
L13: R 2.97, K 3.16, F 2.78, G 2.98, W 3.13, C 2.79, Y 2.66, E 3.23, N 3.71, V 3.65, S 3.57, T 3.51, M 3.29, A 2.72, I 3.2, Q 2.89, P 3.42, D 4, H 3.21
L21: F 2.88, H 3.76, A 4, D 4.43, E 4.5, C 3.97, G 4.36, I 2.41
S7: N 3.68, G 3.18, I 2.77, Q 3.05, F 2.36, A 2.71, E 2.3, K 3.11, R 3.34, W 2.43, P 3.52, C 2.43, D 3.23, H 2.83, M 2.43, T 3.34, L 2.79, Y 2.54, V 2.89
P14: Q 3.44, L 2.29, R 2.4, F 2, H 2.37, M 2.02, A 3.15, C 2.85, W 1.62, S 2.72, I 2.24, N 2.54, G 3.18, D 3.55, T 2.71, K 3.13, Y 2.11, E 3.17, V 2.55
F9: H 3.64, N 3.88, V 3.46, R 3.7, T 3.42, P 3.38, S 3.16, L 3.53, C 3.16, K 4.33, I 3.3, Y 3.41, A 3.97, M 3.18, G 4.03, W 3.27, D 4.08
H5: W 2.27, Y 2.85, K 2.34, S 2.51, A 3.06, R 3.64, N 2.91, P 2.9, C 3.25, I 2.66, L 2.73, V 3.23, T 3.28, D 3.36, F 2.33, Q 2.65, G 2.81, M 2.63, E 3.97
P10: S 3.46, H 2.77, Y 2.4, C 2.38, E 2.6, V 2.65, F 2.27, I 2.56, Q 3.06, T 3.25, K 3.44, R 3.75, D 2.99, A 3.24, L 2.25, M 2.19, W 1.99, N 2.69
Q6: C 1.72, E 2.88, Y 2.9, H 3.36, K 3.15, L 2.49, P 2.55, T 2.49, S 3.25, W 2.27, A 2.61, G 3.22, R 4.03, V 2.89, N 2.71, M 2.23, I 2.37, F 2.3, D 3.39
H4: Y 2.89, Q 3.9, W 2.87, P 3.19, E 3.15, L 3.13, I 2.34, R 1.94, K 3.26, V 2.82, M 2.37, T 3.36, C 2.87, D 3.56, A 2.94, S 2.96, N 3.14, G 3.52, F 2.74

Reference: the supplement of paper PMC10567573
